Test results published in patent US20230151434A1, “REAWAKENING OF DORMANT TUMOR CELLS BY MODIFIED LIPIDS DERIVED FROM STRESS ACTIVATED NEUTROPHILS” (The Wistar Institute of Anatomy and Biology, priority 2020, published 2023).

B1: S100A8/A9: recombinant S100A8/A9, heterocomplex of two S100 calcium binding proteins (calprotectin) (protein, UniProt P27005 2-89; P31725 2-113, looked up)
Protein S100-A8: PSELEKALSNLIDVYHNYSNIQGNHHALYKNDFKKMVTTECPQFVQNINIENLFRELDINSDNAINFEEFLAMVIKVGVASHKDSHKE
Protein S100-A9: ANKAPSQMERSITTIIDTFHQYSRKEGHPDTLSKKEFRQMVEAQLATFMKKEKRNEALINDIMEDLDTNQDNQLSFEECMMLMAKLIFACHEKLHENNPRGHGHSHGKGCGK

Key:
KPr^p53A cells = experiment: In vitro co-culture of dormant tumor cells with PMN (count of GFP+ cells); format: cell-based, mouse
Experimental: (§1) The KPr cell line (16) was maintained in RPMI 1640 medium (Corning) and 10% FBS (Gibco). Treatment of KPr cells with 250 nM 4-hydroxytamoxifen (4-OHT, Sigma-Aldrich) induced p53 expression. p53-induced cells (KPr^p53) were stained with CellTrace dye for 20 min at 37° C. according to the manufacturer's instructions (Life Technologies) and seeded at 8500 cells/cm^2 in culture in a T175 tissue culture-treated flask (Gibco). After 7 days, cells were detached and sorted based on the CellTrace dye intensity as proliferating (KPr^p53P, with lower CellTrace) and arrested cells (KPr^p53A, with higher-intensity CellTrace; see FIG. 1A for representative image). LL2 cells were seeded at 1000 cells/cm2 and treated for 3 days with 2.5 μM cisplatin (Selleckchem). After that, cells were stained with CellTrace and sorted as described above. OVCAR3 cell senescence was induced by treating 5×10^4 cells/cm2 with 0.5 μM cisplatin for 72 hours. After that time, cells were stained with CellTrace and sorted. A549 senescence was induced by 72-hour treatment with 4 μM cisplatin and cells were sorted after staining with CellTrace. Time points for sorting were chosen as the best to observe separation between arrested and proliferating cells. Cells were sorted on Astrios (Beckman Coulter) or Melody (Becton Dickinson) fluorescence-activated cell sorters.
(§2) Arrested tumor cells were plated at 100 cells/cm^2 in a 48-well tissue culture-treated plate (Costar) for coculture experiments. After 24 hours, PMN-MDSC or PMN were added at indicated ratios. Cocultures were maintained for 48 hours in RPMI 1640+10% FBS in the presence of mouse recombinant GM-CSF (10 ng/ml; Rocky Hill) to ensure neutrophil viability. All control conditions were in the presence of media with GM-CSF. All indicated supplements (NE, S100A8/A9, BGJ398, ICI 118-551, IL-2, MPO inhibitor, LPS, lipids, PMA, and thapsigargin 1 μM) were added to culture at the same time as PMN and maintained for 48 hours. After that, media were removed and replaced by fresh media without GM-CSF. After 1 week, GFP^+ cells in wells were counted via an inverted microscope. When lipid extracts were used, lipids were added to dormant cells in culture at 1 to 0.05 or 0.01 nmol as indicated in each experiment.

[1] = system: A549^cisA and OVCAR3^cisA cells; experiment: In vitro co-culture of chemotherapy-arrested human tumor cells with human PMN; format: cell-based; conditions: PMN and NE plus ICI-118,551
Experimental: as §1, §2

[2] = system: LL2^cisA and AT-3^DoxA cells; experiment: In vitro co-culture of chemotherapy-arrested mouse tumor cells with PMN; format: cell-based
Experimental: as §1, §2

PMN = PMN viability (proportion of live PMN); format: cell-based, mouse
Experimental: FIG. 2A-FIG. 2K show neutrophil-mediated reactivation of dormant cells is regulated by stress-induced S100A8/A9. (FIG. 2A) Fold increase in the number of KPr^p53A cells cultured in the presence of PMN and S100A8/A9 or indicated cytokines relative to KPr^p53A cells cultured with PMN. Three independent experiments with 16 replicates were performed. Mean±SEM of one experiment is shown. (FIG. 2B) Fold increase in the number of KPr^p53A cells cultured in the presence of PMN and LPS relative to KPr^p53A cells cultured with PMN or alone. Means±SEM of three independent experiments with 16 replicates each are shown. (FIG. 2C) Fold increase in the number of KPr^p53A cells cultured in the presence of S100A8/A9 alone, PMN and S100A8/A9, or PMN-MDSC relative to KPr^p53A cultured alone. Means±SEM of 10 independent experiments with 16 replicates each are shown. (FIG. 2D) S100A8/A9 protein produced by PMN after treatment with indicated hormones or LPS was measured by ELISA. PMN-MDSC were isolated from spleens of Lewis lung carcinoma tumor-bearing mice. Means±SEM and results of each independent experiment with three replicates are shown. (FIG. 2E) S100A8/A9 protein secreted in vitro from PMN and PMN treated with NE with or without ICI-118; […] as measured by ELISA. Means±SEM and results of independent experiment with three replicates are shown. (FIG. 2F) Flow cytometry staining of ADRB2 receptor (dark gray) on PMN isolated from mouse spleen. Isotype control, light gray. Representative histogram of three experiments is shown. (FIG. 2G) Fold increase in the number of KPr^p53A cells cultured with PMN alone, NE alone, PMN and NE together, and PMN and NE plus ICI-118; 553 relative to KPr^p53A cells cultured alone (Ctrl). Ten independent experiments with 16 replicates for each experiment were performed. Means±SEM in a representative experiment are shown. (FIG. 2H) Number of KPr^p53A cells cultured in the presence of PMN from S100a9KO mice alone or together with NE relative to KPr^p53A cells cultured alone (ctrl). Means±SEM are reported for 16 replicates. (FIG. 2I) Percentage of live PMN after overnight incubation with NE, S100A8/A9, or LPS. Each dot represents the average of three experimental replicates of one single experiment. Means±SEM are shown for each group. (FIG. 2J) Fold increase in number of LL2^CisA cells cultured with PMN alone or together with S100A8/A9 or NE relative to LL2^CisA cultured alone (Ctrl). Means±SEM of three independent experiments with 16 replicates each are shown. […] In all panels, P values were calculated using ANOVA test with correction for multiple comparisons.
FIG. 11A-FIG. 11G show the mechanism of dormant tumor cell reactivation. […] P values were calculated by ANOVA test with correction for multiple comparisons. […]

Molecule	proliferation of KPr^p53A cells induced by PMN and NE, effect of β-blocker (KPr^p53A cells; PMN and NE plus ICI-118,551)	NE- and PMN-induced reactivation of dormant human tumor cells, effect of β-blocker [1]	NE- and PMN-induced reactivation of dormant mouse tumor cells, effect of β-blocker ([2]; PMN and NE plus ICI-118,551)	cytotoxic effect on PMN (PMN; proportion of live PMN after exposure)	reactivation/proliferation of KPr^p53A cells, supplement alone (KPr^p53A cells; absence of PMN)	reactivation of KPr^p53A cells cultured with MON plus supplement (KPr^p53A cells; monocytes instead of PMN)	reactivation/proliferation of KPr^p53A cells cultured with PMN plus supplement (KPr^p53A cells; supplement added with PMN, LPS 0.5 to 2 μg/ml)	proliferation of arrested mouse tumor cells cultured with mouse PMN plus supplement ([2]; LL2^cisA, AT-3^DoxA)	PMN viability (PMN)
Cc1ccc(OCC(O)C(C)NC(C)C)c2c1CCC2 (stereo not drawn) [ICI-118,551]	this effect was abrogated	this effect was abrogated	this effect was abrogated	no cytotoxic effect on PMN	–	–	–	–	–
B1	–	–	–	–	no effect	failed to reactivate KPr^p53A cells	enabled PMN to induce proliferation of KPr^p53A cells	activated proliferation	did not affect PMN viability
